Source: the DeepSol protein solubility set

Experiment: soluble on expression in E. coli; label from the status in PepcDB or PDB records

Sequence	soluble on expression in E. coli
MGSDKIHHHHHHMIIEHARDMLKRERLFFDKMQAHIGEVNGTISIGCSSLIGQTLLPEVLSLYNAQFPNVEIQVQVGSTEQIKANHRDYHVMITRGNKVMNLANTHLFNDDHYFIFPKNRRDDVTKLPFIEFQADPIYINQIKQWYNDNLEQDYHATITVDQVATCKEMLISGVGVTILPEIMMKNISKEQFEFEKVEIDNEPLIRSTFMSYDPSMLQLPQVDSFVNLMASFVEQPKA	not soluble
RPAVFPRMGVLPARVALLGQGQHWGVDFCLNVFRANFAEDREIQSEDVVRDLLRAQDLDADALIAQARQESTKEALRKQVDRARALGIFGAPTFMVDGEMFWGNDRLED	not soluble
MGKRMVVVGGVAGGASAAAKAKRENPELEVVVYEKSGWVSYGACGLPYVLSGEIPRLERLVARTPEEFRKQGVLVRTRHEVVDVDYELRTLTVHDHAEGRTFQDRFDHLVLATGARPSLPPIPGTEQEGVYTLRTMEDGERLLKALPQARRAAILGAGYIGLEAAEAFRKRGLQVTLLEAKDRPLPHWDPEVGALLKEELERHGVEVWTGVKVEAFRGMGRVEAVETSEGVVPADLVLLATGIRPNTELAQAMGVALGPTGAIATDERMRTNLEGVYAAGDVAESFHRVLKRPYWLPLGDVANKHGRTAGSVIAGREARFLGVVGTAIFKAFDLAVATTGLSLEGALKEGFWAKKVFIQSRDGAHYYPGSGPLWVELVYEEGTGRLLGGAVVARGHGALRIDVLAALLHREGSVEDLLALDLAYAPPFSPVWDPLLIAAQQAR	soluble
NTLTVKMNDALSSGTGENIGEITVSETPYGLLFTPHLNGLTPGIHGFHVHTNPSCMPGMKDGKEVPALMAGGHLDPEKTGKHLGPYNDKGHLGDLPGLVVNADGTATYPLLAPRLKSLSELKGHSLMIHKGGDNYSDKPAPLGGGGARFACGVIEK	soluble
MTDYPSIFEPLTVKRMTIKNRVIMPPMGTNLAGLNGEFLEEHMNYYEQRAKGGTGLITIENACVDFPYGTNGTTQLRIDNDQYIPGFYKLTERLHKHGTCVSIQINHAGASAYPARLNGLQPVSASDIPSKKGGTVPRPLTVEEIYEIVNKYGDAARRAQQAGFDAVEIHGGHSYLLCQFLSPLYNKRTDEFGGTPENRARIVKLILEKVRAEVGPFFPIVLRFSADEFTEGGNHLEDILELLDYCQEEADILNVSAAINDNLYLQIDQMNLEDGWRSYLAKAVKDKFNKPTITSGNIRSPKAAEKILSEGYADLLAMGRGLIAEPNWVNKVATGQEDMLRKCISCNIGCADHRISKSKPIRCTVNPDIIHEDKYKETKVTRPTNVVVIGGGTAGLEAACTAAEVGCNTTLIEANEQTGGLARAIANLPDKSRIADFPNYLANRAEKLTNLKVITGTKADTALIDTFNPDVVVNATGSKPLLPPIKGLLDVIDKEGSKVHSIFGLISNIDDFTEFSNKKVAVIGGGAVGLDVVEYFSERGSDVTIVEMMPLLGKDLDMITRLSMMDIIEKNHVDVQTETALTEVAADHFKVKHDGVDAEIPFDYGFVCLGMRPERPLMEELAAYGKEKQIEIVNIGDSAATRKILEGVREGRNILTTLEKIGSL	not soluble
MGSDKIHHHHHHMHKDVSQLPQKANPALVKQANLFADLPTKLIEDFQQEFQLNQWNKGDYINSDILTQRFFVVIEGNIEIKQSNPDTGREATLDMLYAGDCFDLMVLLDNQPHEVIISPLTTVKLLSVKLSTMRYWLWTYPEFNQQFMPYIAKKMREKEQQASSLILHDVTTRLSRIILEHINKIKFYTGTKEEEHQHHLVNGLNDETLARMTGSVRQVINKQLQHWKKEDVIDKKRNQLIIKDLEALEKEAKYTQNLANAPLSKS	not soluble
GPGSMSAIVPAAHAREDMGGCAPCRVSSFHPCEGDGAEEKECNASSGADAAAAAEPLDPLRCFSAFDVLRDVLAACTCAPALSRSTEKGADSPSLLPGAPLPSAWRTEQTREALRTLVDLVAADVGVSSARHGQGEAPEEAEIARSRLSVDALLLHLTTEGPNLRAALRRRRRQLLPMPPRDDATTQSEREACDEAHAACEEDEALAALTRCAASVALINRDLGSSARKGRKAVQTAASCVLQTRTALSLLRTSSLVHQPLRAGAGHAAASRSAIAAADVSAYWCSTGCMGLDQALGGGGFRSGWVTEVYGEAGAGKTQLGLQCLLQQAATDVCHAAVALALASGADFTSLAHMATTTGMCGSRSPVVKCMEVFDRDAVEAARCAVVYLVSEDVPTSRLGPLAAAAVGRAVRAVRLHPLVNQLPSGVVKTVWGCVERTCTVPTVLSRLQIRHVASVAEVLRLLEPLPHPQLAQVSRTSSPPNVIPNRAQRPRNSNLVEAVRVLAGTHGRAVVVLDSVAAAVVAGQWDMQGVAQADATVTALSLRLRQAAMTHNWCIVVTNQVRAIPTTARQRQCALAPIKRARSPTTSSTASAPSVTRTVVPALGFSWASAAHCRVFLRKSLSHGVRQLVLRHAPSHPPAQASYLITEHGIEDA	not soluble
MAISKLFFAYFHKNEKPFKMLCLPLLPLKNVINQMSFESVWRLSKTSRKMYEKIKNVKKSIYKIVIDNRFEYNIIYPRFKTRILRFEKKSDFVSVYNEMGTNKEITASVYLKFSVDFWIELFYKLDKRGPGKLRSSVYKLNHLKKRLKYLNRFDELFSIKHVDLVIDKYKLFGDSISHPLFQKCDYMEIVGNTSYISNNEMNFVLNNFKLKNGLLTNCLIAEDFDVTAMQQIPRLVIFNAQHITVEDLIKMDCETIKLCYHQFKPRHINQLLHHWLSGEMPKLRRFRLNFYCDTTWIGVVLSGIEHSKWDGQRRAKFFRDGIESIDCGNGFDIERNDGLLATFSSLEDSIDFVVWGNISAL	not soluble
MSLENKIIFVAGACGRIGKALCEKILLSKGIPILADINKECLNKLQENLETNFKTKLLSLELDITKQESLQTALQKSQERYGKIDAFVNSSYPFGKDWGKTPYYELKYEQICESLNLHLAGFMLAAQEFVKFFKQQGYGNIINLSSIMGVYAPKFENYEGTSMQSSLEYSVIKAGINHMSSWLAKELFNQNIRVNTLASGGILDNQNELFLKAYRKCCASKGMLDADDICGTLVFLLSDESKFITGQTLVVDDGWGLEGHHHHHH	soluble
MQERDKEPLQERFFRPHFLQAPGDMVAHEGRLCRLDCKVSGLPPPELTWLLNGQPVLPDASHKMLVRGTGVHSLLIDPLTQRDAGTYTCVATNKTGQNSFSLELTVVAKEVKKAPVILEKLQNSGVPEGHPVRLEGRVIGMPPPVFYWKKDNETIPFTRERISMHQDTTGYVCLLIQPAKKSDAGWYTLSAKNEAGIVSCTARLDIYAQWHQQIPTPISIRPSGSRYGSLTSKGLDIFSAFSSVESTMLYSCTSRSVVESDEL	not soluble
MGSDKIHHHHHHMSSPFDYFVVFAEMRTGSNFLEANLNALDGVACVGEAFNPHFIGYPNKTEILEVSQDMRDADPQCLIDAVRDARGVLAGFRFFHDHDPRVLDLVLSDPRCAKIILTRNPLDSYVSWKIAKETGQWKLTNIKRRKEAQARFDAEEFARHVEALQDFQVFLLNSLQRSGQTPFYVAYEDLQDLSVMNGLAQWLGVSARLEQLDDSLKRQNPSPVTSKVVNAGEMVEALSGLDRFNLTRTPNFEPRRGPAVPTYVTGAVTPLIYLPVRGGPEDEVRRWMADLDGVVDAALGTGLNQKQVRGWLKGNEGHRAFTVLRHPLARAHSAFCHRILNKGPGCFTKIRNTLRRQFSLPIPEGTPGLDYGRADHRAAFEAFLEFVRMNLAGQTAIRIDGSWCSQAQALSSFAEFVSPDLILREDEIATDLPSLARRFGHAEPPEPPRAAPDTPIPLSDIYDDALEALAADVYQRDYIVFGFGKWAGGQA	not soluble
MGSSHHHHHHSSGLVPRGSQSTSLYKKAGLMISAGDFKNGVTFELDGQIFQVIEFQHVKPGKGAAFVRTKLKNIVTGATIEKTFNPTDKMPKAHIERKDMQYLYNDGDLYYFMDTETFEQLPLGKDKIGDALKFVKENEIVKVLSHKGNVFGIEPPNFVELEVTDTEPGFKGDTATGATKPAIVETGASIKVPLFVNKGDIIRIDTRTGEYMERV	soluble
MHWRLTVLFFASAQLSEGCLPMVPPEEPVTPVPVCPAGWFQFQRATGLWCYIFATPGAGWTTPQAACQANYGANLNGFESAAERTQFIQDMLASNLAPYTFVHIGAMRQCAPCTVNDPFVWLNGVSNDNTFANDYDSLYDLTGDCLSMDLGNNGQYNDITCDAETAYSCGKPAA	not soluble
MFNQTQTVTYPATFLGAKKFKGEIDGSNIDTCSVLVATPLPAQSGNAVGFTAAQMKFGDSKNFSKLENLKYPCEVMVTVEMTSTGKGMVPSLIDFQVAEKPKG	not soluble
SVTSSQVMLMPAHDSAKPTGFGIMVTSLDLLRDHQKVIHTLWFIDDVVARELGGFDGFCRRERVLLLFVDSTNTTLSFTRNDMTCVPRQGGADSDHWLFKRHLALLLPLSFAQVYEGFISFYEEEDKHISWDIKSCSSSSHQ	not soluble
MTNDFATVLRQFVEGLDLGIKPRLDYLTRQEDLAIYPMPGGKVNNEYMDGTREISLPFEIAIKTKNQELASTVMWTINSALSNFDLKLPSLNHSYTFISLDVEKPFLNDLSDQGFYIYVLDITAHLEIEGNN	soluble
MKPSIFRQALCVSAAAVLTTVSHSLTTPTAHAQGGTPGLMEFRWDSDRNYRKLYYFQTSSIENDRSEWYLHLRAKDRKTSIMKLTVTVPDYFDAKLRPERMTLCRTSSGSMTKRTRCLEEVPATIEVNKTQTAIEVYPDTPVPVEGDYSLRIKLFNPQGKRMYQLNALIQAPGDVPMSGYVGSWLIDMD	not soluble
MSLKIADIQVRTEHFPLTRPYRIAFRSIEEIDNLIVEIRTADGLLGLGAASPERHVTGETLEACHAALDHDRLGWLMGRDIRTLPRLCRELAERLPAAPAARAALDMALHDLVAQCLGLPLVEILGRAHDSLPTSVTIGIKPVEETLAEAREHLALGFRVLKVKLCGDEEQDFERLRRLHETLAGRAVVRVDPNQSYDRDGLLRLDRLVQELGIEFIEQPFPAGRTDWLRALPKAIRRRIAADESLLGPADAFALAAPPAACGIFNIKLMKCGGLAPARRIATIAETAGIDLMWGCMDESRISIAAALHAALACPATRYLDLDGSFDLARDVAEGGFILEDGRLRVTERPGLGLVYPDEGHHHHHH	soluble
MFNALLLTQQDKITHATVTQINDDQLPAGNVTVAVNYSSLNYKDGLAITGKGKIIREFPMVPGIDFAGTVLESADARYQVGDAVVLTGWGVGENHWGGMAQKARLNADWLVKLPQGLTSQQAMMIGTAGFTAMLCVQALIDGGIKPEDGEILVTGASGGVGSVAVTLLAQLGYKVVAVTGRVAQNGPLLEQLGASRVIDRQEFSEASRPLEKQLWVGAVDTVGSKVLAKVLAQMHYNGVVAACGLAGGFDLPTTVMPFILRNVRLQGVDSVSCPVEKRLAAWKKLAELLPASYYAQACHEISLSQVPEYAEAITNGQVTGRVVVKL	not soluble
MVKSVGCKNLSLDVKKAIVAGFEQGTPTKMLALQIQRSPSTIWKVIKKYQTEKSVALRISPGRPRVTTHRMDRNILRSAREDPHRTATDIQTIISSPNEPVPSKRTVRRRLQQAGLHGRKPVKKPFISKKNRMARVAWAKAHLRWGRQEWAKHIWSDESKFNLFGSDGNSWVRRPVGSRYSPKYQCPTVKHGGGSVMVWGCFTSTSMGPLRRIQSIMDRFQYENILETTMRPWALQNVGRGFVFQQDNDPKHTSLHVRSWFQPCRVHLLDWPSQSPDLNPIEHLWEELERRLGGIRASNADAKFNQLENAWKAIPMSVIHKLIDSMPRRCLAVIDANGYATKY	not soluble
